{"source": "patent US20240368250A1", "about": "(Ablynx, published 2024)", "key": {"[1]": {"target": "T1, Human FcRn (biotinylated human FcRn) (human, UniProt P61769 21-119)", "T1 construct": "Biotinylated human FcRn captured on a Series S Sensor Chip SA; also called human neonatal Fc receptor; hFcRn", "test": "SPR Biacore 8K+, biotinylated hFcRn on SA chip (~500-600 RU), pH 6.0, bivalent analyte fit"}, "[2]": {"target": "T1, Human FcRn (biotinylated human FcRn)", "test": "SPR Biacore 8K+, biotinylated hFcRn on SA chip (~500-600 RU), pH 6.0, bivalent analyte fit (ka1)"}, "[3]": {"target": "T1, Human FcRn (biotinylated human FcRn)", "test": "SPR Biacore 8K+, biotinylated hFcRn on SA chip (~500-600 RU), pH 6.0, bivalent analyte fit (KD1)"}, "[4]": {"target": "T1, Human FcRn (biotinylated human FcRn)", "test": "SPR Biacore 8K+, biotinylated hFcRn on SA chip (~500-600 RU), pH 6.0, bivalent analyte fit (kd1)"}, "[5]": {"target": "T2, Human serum albumin (HSA; Sigma-Aldrich Cat No. A8763) (human, UniProt P02768 25-609)", "test": "SPR Biacore 8K+, HSA on C1 chip, pH 7.4, off-rate column"}, "[6]": {"target": "T3, Mouse serum albumin (MSA; Albumin Bioscience Cat No. 2601) (mouse, UniProt P07724 25-608)", "test": "SPR Biacore 8K+, MSA on C1 chip, pH 7.4, off-rate column"}, "[7]": {"target": "T2, Human serum albumin (HSA; Sigma-Aldrich …)", "test": "SPR Biacore 8K+, HSA on C1 chip, pH 7.4, bivalent analyte fit (kd1)"}, "[8]": {"target": "T1, Human FcRn (biotinylated human FcRn)", "test": "SPR Biacore 8K+, biotinylated hFcRn on SA chip (~700 RU), pH 6.0, bivalent analyte fit"}, "[9]": {"target": "T3, Mouse serum albumin (MSA; Albumin …)", "test": "SPR Biacore 8K+, MSA on C1 chip, pH 7.4, bivalent analyte fit (ka1)"}, "[10]": {"target": "T3, Mouse serum albumin (MSA; Albumin …)", "test": "SPR Biacore 8K+, MSA on C1 chip, pH 7.4, bivalent analyte fit (KD1)"}, "[11]": {"target": "T1, Human FcRn (biotinylated human FcRn)", "test": "SPR Biacore 8K+, biotinylated hFcRn on SA chip (~700 RU), pH 6.0, bivalent analyte fit (kd1)"}, "[12]": {"target": "T3, Mouse serum albumin (MSA; Albumin …)", "test": "SPR Biacore 8K+, MSA on C1 chip, pH 7.4, bivalent analyte fit (kd1)"}, "[13]": {"target": "T2, Human serum albumin (HSA; Sigma-Aldrich …)", "test": "SPR Biacore 8K+, HSA on C1 chip, pH 7.4, bivalent analyte fit (KD1)"}, "[14]": {"target": "T2, Human serum albumin (HSA; Sigma-Aldrich …)", "test": "SPR Biacore 8K+, HSA on C1 chip, pH 7.4, bivalent analyte fit (ka1)"}, "[15]": {"target": "T1, Human FcRn (biotinylated human FcRn)", "test": "SPR Biacore 8K+, biotinylated hFcRn on SA chip (~700 RU), pH 6.0, bivalent analyte fit (KD1)"}, "[16]": {"target": "T1, Human FcRn (biotinylated human FcRn)", "test": "SPR Biacore 8K+, biotinylated hFcRn on SA chip (~700 RU), pH 6.0, bivalent analyte fit (ka1)"}, "[17]": {"target": "T2, Human serum albumin (HSA; Sigma-Aldrich …)", "test": "SPR Biacore 8K+, HSA on C1 chip, pH 7.4, bivalent analyte fit (ka1)", "remark": "listed apart in the source"}, "[18]": {"target": "T2, Human serum albumin (HSA; Sigma-Aldrich …)", "test": "SPR Biacore 8K+, HSA on C1 chip, pH 7.4, bivalent analyte fit (kd1)", "remark": "listed apart in the source"}, "[19]": {"target": "T3, Mouse serum albumin (MSA; Albumin …)", "test": "SPR Biacore 8K+, MSA on C1 chip, pH 7.4, bivalent analyte fit (KD1)", "remark": "listed apart in the source"}, "[20]": {"target": "T2, Human serum albumin (HSA; Sigma-Aldrich …)", "test": "SPR Biacore 8K+, HSA on C1 chip, pH 7.4, bivalent analyte fit (KD1)", "remark": "listed apart in the source"}, "[21]": {"target": "T3, Mouse serum albumin (MSA; Albumin …)", "test": "SPR Biacore 8K+, MSA on C1 chip, pH 7.4, bivalent analyte fit (kd1)", "remark": "listed apart in the source"}, "[22]": {"target": "T3, Mouse serum albumin (MSA; Albumin …)", "test": "SPR Biacore 8K+, MSA on C1 chip, pH 7.4, bivalent analyte fit (ka1)", "remark": "listed apart in the source"}, "[23]": {"target": "T3, Mouse serum albumin (MSA; Albumin …)", "test": "SPR Biacore 8K+, MSA on C1 chip, pH 7.4, 1:1 fit (off-rate only)"}, "[24]": {"target": "T2, Human serum albumin (HSA; Sigma-Aldrich …)", "test": "SPR Biacore 8K+, HSA on C1 chip, pH 7.4, 1:1 fit"}}, "note": "Like-named read-outs stand apart in the source and are kept apart here.", "data": [{"binder": "TPP-66150 (Fc fusion) chain 1: DVQLVESGGGVVQAGGSLSISCAASGGSLSNYVLGWFRQAPGKEREFVAAINWRGDITIGPPNVEGRFTISRDNAKNTGYLQMNSLAPDDTALYYCGAGTPLNPGAYIYDWSYDYWGRGTLVTVSSDKTHTCPPCPAPEAAGGPSVFLFPPKPKDTLMISRTPEVTCVVVDVSQEDPEVQFNWYVDGVEVHNAKTKPREEQFNSTYRVVSVLTVLHQDWLNGKEYKCKVSNKGLPSSIEKTISKAKGQPREPQVYTLPPCQEEMTKNQVSLWCLVKGFYPSDIAVEWESNGQPENNYKTTPPVLDSDGSFFLYSKLTVDKSRWQEGNVFSCSVMHEALHNHYTQKSLSLSLG chain 2: DVQLVESGGGVVQAGGSLSISCAASGGSLSNYVLGWFRQAPGKEREFVAAINWRGDITIGPPNVEGRFTISRDNAKNTGYLQMNSLAPDDTALYYCGAGTPLNPGAYIYDWSYDYWGRGTLVTVSSDKTHTCPPCPAPEAAGGPSVFLFPPKPKDTLMISRTPEVTCVVVDVSQEDPEVQFNWYVDGVEVHNAKTKPREEQFNSTYRVVSVLTVLHQDWLNGKEYKCKVSNKGLPSSIEKTISKAKGQPREPQVCTLPPSQEEMTKNQVSLSCAVKGFYPSDIAVEWESNGQPENNYKTTPPVLDSDGSFFLVSKLTVDKSRWQEGNVFSCSVMHEALHNRFTQKSLSLSLGGGGGSGGGGSGGGGSGGGGSGGGGSGGGGSGGGGSDLGKKLLEAARAGQDDEVRELLKAGADVNAKDYFSHTPLHLAARNGHLKIVEVLLKAGADVNAKDFAGKTPLHLAANEGHLEIVEVLLKAGADVNAQDIFGKTPADIAADAGHEDIAEVLQKAA", "values": [{"measurement": "KD2", "setting": "[1]", "value": 6.37, "unit": "M"}, {"measurement": "ka2", "setting": "[1]", "value": "3.02e-05 1/RUs"}, {"measurement": "kd2", "setting": "[1]", "value": 0.000192, "unit": "s⁻¹"}, {"measurement": "kon", "setting": "[2]", "value": 73900, "unit": "M⁻¹ s⁻¹"}, {"measurement": "Kd", "setting": "[3]", "value": 1160, "unit": "nM"}, {"measurement": "koff", "setting": "[4]", "value": 0.0859, "unit": "s⁻¹"}, {"measurement": "binding result", "setting": "[5]", "value": "binds"}, {"measurement": "binding result", "setting": "[6]", "value": "binds"}]}, {"binder": "T-0263-00_TP123 (antibody, human IgG1, kappa, Full-length IgG1 knob-in-hole with two C-terminal ALB23002-A (9GS), one on each heavy chain) heavy 1: not shown heavy 2: EVQLVESGGGLVQPGGSLRLSCAASGFNIRDTYIHWVRQAPGKGLEWVARIYPTQGYTRYADSVKGRFTISADTSKNTAYLQMNSLRAEDTAVYYCSRWGGEGFYAMDYWGQGTLVTVSSASTKGPSVFPLAPSSKSTSGGTAALGCLVKDYFPEPVTVSWNSGALTSGVHTFPAVLQSSGLYSLSSVVTVPSSSLGTQTYICNVNHKPSNTKVDKKVEPKSCDKTHTCPPCPAPELLGGPSVFLFPPKPKDTLMISRTPEVTCVVVDVSHEDPEVKFNWYVDGVEVHNAKTKPREEQYNSTYRVVSVLTVLHQDWLNGKEYKCKVSNKALPAPIEKTISKAKGQPREPQVCTLPPSRDELTKNQVSLSCAVKGFYPSDIAVEWESNGQPENNYKTTPPVLDSDGSFFLVSKLTVDKSRWQQGNVFSCSVMHEALHNRFTQKSLSLSPGGGGGSGGGSEVQLVESGGGVVQPGGSLRLSCAASGFTFRSFGMSWVRQAPGKGPEWVSSISGSGSDTLYADSVKGRFTISRDNSKNTLYLQMNSLRPEDTALYYCTIGGSLSRSSQGTLVTVSSA light: not shown", "values": [{"measurement": "koff", "setting": "[7]", "value": 0.00253, "unit": "s⁻¹"}, {"measurement": "ka2", "setting": "[8]", "value": "1.7e-05 1/RUs"}, {"measurement": "kd2", "setting": "[8]", "value": 0.00059, "unit": "s⁻¹"}, {"measurement": "kon", "setting": "[9]", "value": 61400, "unit": "M⁻¹ s⁻¹"}, {"measurement": "Kd", "setting": "[10]", "value": 560, "unit": "nM"}, {"measurement": "koff", "setting": "[11]", "value": 0.15, "unit": "s⁻¹"}, {"measurement": "koff", "setting": "[12]", "value": 0.0344, "unit": "s⁻¹"}, {"measurement": "Kd", "setting": "[13]", "value": 67.4, "unit": "nM"}, {"measurement": "kon", "setting": "[14]", "value": 37500, "unit": "M⁻¹ s⁻¹"}, {"measurement": "Kd", "setting": "[15]", "value": 2400, "unit": "nM"}, {"measurement": "kon", "setting": "[16]", "value": 63000, "unit": "M⁻¹ s⁻¹"}]}, {"binder": "TPP-66177 (Fc fusion, Symmetrical IgG4 FALA Fc fusion without knob-in-hole mutations, two C-terminal ALB23002 via 35GS; also called symmetrical ALB23002 ISVD-Fc polypeptide) DVQLVESGGGVVQAGGSLSISCAASGGSLSNYVLGWFRQAPGKEREFVAAINWRGDITIGPPNVEGRFTISRDNAKNTGYLQMNSLAPDDTALYYCGAGTPLNPGAYIYDWSYDYWGRGTLVTVSSDKTHTCPSCPAPEAAGGPSVFLFPPKPKDTLMISRTPEVTCVVVDVSQEDPEVQFNWYVDGVEVHNAKTKPREEQFNSTYRVVSVLTVLHQDWLNGKEYKCKVSNKGLPSSIEKTISKAKGQPREPQVYTLPPSQEEMTKNQVSLTCLVKGFYPSDIAVEWESNGQPENNYKTTPPVLDSDGSFFLYSKLTVDKSRWQEGNVFSCSVMHEALHNHYTQKSLSLSLGGGGGSGGGGSGGGGSGGGGSGGGGSGGGGSGGGGSEVQLVESGGGVVQPGGSLRLSCAASGFTFRSFGMSWVRQAPGKGPEWVSSISGSGSDTLYADSVKGRFTISRDNSKNTLYLQMNSLRPEDTALYYCTIGGSLSRSSQGTLVTVSSA", "values": [{"measurement": "kon", "setting": "[17]", "value": 54300, "unit": "M⁻¹ s⁻¹"}, {"measurement": "KD2", "setting": "[1]", "value": 3.64, "unit": "M"}, {"measurement": "ka2", "setting": "[1]", "value": "4.07e-05 1/RUs"}, {"measurement": "kd2", "setting": "[1]", "value": 0.000148, "unit": "s⁻¹"}, {"measurement": "koff", "setting": "[18]", "value": 0.000776, "unit": "s⁻¹"}, {"measurement": "kon", "setting": "[2]", "value": 51500, "unit": "M⁻¹ s⁻¹"}, {"measurement": "Kd", "setting": "[19]", "value": 8.8, "unit": "nM"}, {"measurement": "Kd", "setting": "[20]", "value": 14.3, "unit": "nM"}, {"measurement": "Kd", "setting": "[3]", "value": 1690, "unit": "nM"}, {"measurement": "koff", "setting": "[4]", "value": 0.0872, "unit": "s⁻¹"}, {"measurement": "koff", "setting": "[21]", "value": 0.000404, "unit": "s⁻¹"}, {"measurement": "kon", "setting": "[22]", "value": 45900, "unit": "M⁻¹ s⁻¹"}]}, {"binder": "T-0263-00_TP121 (antibody, human IgG1, kappa, Full-length IgG1 knob-in-hole with one C-terminal ALB23002-A (9GS) on chain 1) heavy 1: not shown heavy 2: EVQLVESGGGLVQPGGSLRLSCAASGFNIRDTYIHWVRQAPGKGLEWVARIYPTQGYTRYADSVKGRFTISADTSKNTAYLQMNSLRAEDTAVYYCSRWGGEGFYAMDYWGQGTLVTVSSASTKGPSVFPLAPSSKSTSGGTAALGCLVKDYFPEPVTVSWNSGALTSGVHTFPAVLQSSGLYSLSSVVTVPSSSLGTQTYICNVNHKPSNTKVDKKVEPKSCDKTHTCPPCPAPELLGGPSVFLFPPKPKDTLMISRTPEVTCVVVDVSHEDPEVKFNWYVDGVEVHNAKTKPREEQYNSTYRVVSVLTVLHQDWLNGKEYKCKVSNKALPAPIEKTISKAKGQPREPQVCTLPPSRDELTKNQVSLSCAVKGFYPSDIAVEWESNGQPENNYKTTPPVLDSDGSFFLVSKLTVDKSRWQQGNVFSCSVMHEALHNRFTQKSLSLSPG light: not shown", "values": [{"measurement": "ka2", "setting": "[8]", "value": "1.8e-05 1/RUs"}, {"measurement": "kd2", "setting": "[8]", "value": 0.00036, "unit": "s⁻¹"}, {"measurement": "koff", "setting": "[11]", "value": 0.16, "unit": "s⁻¹"}, {"measurement": "Kd", "setting": "[15]", "value": 2300, "unit": "nM"}, {"measurement": "kon", "setting": "[16]", "value": 71000, "unit": "M⁻¹ s⁻¹"}, {"measurement": "koff", "setting": "[23]", "value": 0.0385, "unit": "s⁻¹"}, {"measurement": "Kd", "setting": "[24]", "value": 76.4, "unit": "nM"}, {"measurement": "koff", "setting": "[24]", "value": 0.00204, "unit": "s⁻¹"}, {"measurement": "kon", "setting": "[24]", "value": 26700, "unit": "M⁻¹ s⁻¹"}]}]}
